Values belong to the substance of their own block, whether it stands above or below them.
What was measured:
[1] = biological target: D3H44 light chain Q124R_T178R with N-terminal HA or FLAG tag; assay: LCCA (SPR tag readout), L1:L2 DNA 1:9, normalized to 1:1; competing light chain m18
[2] = biological target: D3H44 light chain T178R with N-terminal HA or FLAG tag; assay: as above
[3] = biological target: D3H44 light chain Q124R_T178K with N-terminal HA or FLAG tag; assay: as above
[4] = biological target: D3H44 light chain Q124R_T178R with N-terminal HA or FLAG tag; assay: LCCA (SPR tag readout), L1:L2 DNA 1:9, normalized to 1:1; competing light chain m13
[5] = biological target: D3H44 light chain Q124R_T178R with N-terminal HA or FLAG tag; assay: LCCA (SPR tag readout), L1:L2 DNA 1:9, normalized to 1:1; competing light chain m11
[6] = biological target: D3H44 light chain Q124E_T180E with N-terminal HA or FLAG tag; assay: LCCA (SPR tag readout), L1:L2 DNA 1:3, normalized to 1:1; competing light chain m14
[7] = biological target: D3H44 light chain Q124E_T180E with N-terminal HA or FLAG tag; assay: LCCA (SPR tag readout), L1:L2 DNA 1:3, normalized to 1:1; competing light chain m19
[8] = biological target: D3H44 light chain Q124E_Q160E_T180E with N-terminal HA or FLAG tag; assay: as above
[9] = biological target: D3H44 light chain Q124R_T178R with N-terminal HA or FLAG tag; assay: LCCA (SPR tag readout), L1:L2 DNA 1:3, normalized to 1:1; competing light chain m11
[10] = biological target: D3H44 light chain Q124E_Q160E_T180E with N-terminal HA or FLAG tag; assay: LCCA (SPR tag readout), L1:L2 DNA 1:9, normalized to 1:1; competing light chain m15
[11] = biological target: D3H44 light chain Q124E_T180E with N-terminal HA or FLAG tag; assay: LCCA (SPR tag readout), L1:L2 DNA 1:9, normalized to 1:1; competing light chain m9
[12] = biological target: D3H44 light chain Q124E_Q160E_T180E with N-terminal HA or FLAG tag; assay: as above
[13] = biological target: D3H44 light chain Q124E_T178E with N-terminal HA or FLAG tag; assay: as above
[14] = biological target: D3H44 light chain Q124E_T180E with N-terminal HA or FLAG tag; assay: LCCA (SPR tag readout), L1:L2 DNA 1:3, normalized to 1:1; competing light chain m9
[15] = biological target: D3H44 light chain Q124E_Q160E_T180E with N-terminal HA or FLAG tag; assay: as above
[16] = biological target: D3H44 light chain Q124E_T178E with N-terminal HA or FLAG tag; assay: as above
[17] = biological target: D3H44 light chain Q124E_T180E with N-terminal HA or FLAG tag; assay: LCCA (SPR tag readout), L1:L2 DNA 1:3, normalized to 1:1; competing light chain m12
[18] = biological target: D3H44 light chain Q124R_T178R with N-terminal HA or FLAG tag; assay: LCCA (SPR tag readout), L1:L2 DNA 1:3, normalized to 1:1; competing light chain m13
[19] = biological target: D3H44 light chain Q124R_Q160K_T178R with N-terminal HA or FLAG tag; assay: as above
[20] = biological target: D3H44 light chain T178R with N-terminal HA or FLAG tag; assay: as above
[21] = biological target: D3H44 light chain Q124K_T178R with N-terminal HA or FLAG tag; assay: as above
[22] = biological target: D3H44 light chain Q124E_Q160E_T180E with N-terminal HA or FLAG tag; assay: LCCA (SPR tag readout), L1:L2 DNA 1:9, normalized to 1:1; competing light chain m19
[23] = biological target: D3H44 light chain Q124R_T178R with N-terminal HA or FLAG tag; assay: LCCA (SPR tag readout), L1:L2 DNA 1:3, normalized to 1:1; competing light chain m18
[24] = biological target: D3H44 light chain T178R with N-terminal HA or FLAG tag; assay: as above
[25] = biological target: D3H44 light chain Q124R_T178K with N-terminal HA or FLAG tag; assay: as above
[26] = biological target: D3H44 light chain Q124E_Q160E_T180E with N-terminal HA or FLAG tag; assay: LCCA (SPR tag readout), L1:L2 DNA 1:3, normalized to 1:1; competing light chain m15
[27] = biological target: D3H44 light chain Q124K_T178R with N-terminal HA or FLAG tag; assay: LCCA (SPR tag readout), L1:L2 DNA 1:9, normalized to 1:1; competing light chain m18
[28] = biological target: D3H44 light chain Q124R_T178R with N-terminal HA or FLAG tag; assay: LCCA (SPR tag readout), L1:L2 DNA 1:3, normalized to 1:1; competing light chain m10
[29] = biological target: D3H44 light chain Q124E_V133D with N-terminal HA or FLAG tag; assay: LCCA (SPR tag readout), L1:L2 DNA 1:9, normalized to 1:1; competing light chain m9
[30] = biological target: D3H44 light chain Q124E_T178E_T180E with N-terminal HA or FLAG tag; assay: as above
[31] = biological target: D3H44 light chain Q124E_V133D with N-terminal HA or FLAG tag; assay: LCCA (SPR tag readout), L1:L2 DNA 1:3, normalized to 1:1; competing light chain m9
[32] = biological target: D3H44 light chain Q124E_T178E_T180E with N-terminal HA or FLAG tag; assay: as above
[33] = biological target: D3H44 light chain Q124E_Q160E_T180E with N-terminal HA or FLAG tag; assay: LCCA (SPR tag readout), L1:L2 DNA 1:3, normalized to 1:1; competing light chain m12
[34] = biological target: D3H44 light chain Q124R_T178R with N-terminal HA or FLAG tag; assay: LCCA (SPR tag readout), L1:L2 DNA 1:9, normalized to 1:1; competing light chain m10
[35] = biological target: D3H44 light chain Q124E_Q160E_T180E with N-terminal HA or FLAG tag; assay: LCCA (SPR tag readout), L1:L2 DNA 1:9, normalized to 1:1; competing light chain m12
[36] = biological target: D3H44 light chain Q124R_T178R with N-terminal HA or FLAG tag; assay: LCCA (SPR tag readout), L1:L2 DNA 1:9, normalized to 1:1; competing light chain m16
[37] = biological target: D3H44 light chain Q124R_T178K with N-terminal HA or FLAG tag; assay: LCCA (SPR tag readout), L1:L2 DNA 1:3, normalized to 1:1; competing light chain m13
[38] = biological target: D3H44 light chain Q124R_T178R with N-terminal HA or FLAG tag; assay: LCCA (SPR tag readout), L1:L2 DNA 1:3, normalized to 1:1; competing light chain m16
[39] = biological target: D3H44 light chain Q124K_T178R with N-terminal HA or FLAG tag; assay: LCCA (SPR tag readout), L1:L2 DNA 1:3, normalized to 1:1; competing light chain m18
[40] = biological target: D3H44 light chain Q124E_T180E with N-terminal HA or FLAG tag; assay: LCCA (SPR tag readout), L1:L2 DNA 1:3, normalized to 1:1; competing light chain m15
[41] = biological target: D3H44 light chain T178R, N-terminal HA or FLAG tag; assay: LCCA, L1:L2 DNA 1:3, SPR of light chain tags; competing light chain m11
[42] = biological target: D3H44 light chain Q124E_Q160E_T180E, N-terminal HA or FLAG tag; assay: LCCA, L1:L2 DNA 1:3, SPR of light chain tags; competing light chain m10
[43] = biological target: D3H44 light chain T178R, N-terminal HA or FLAG tag; assay: LCCA, L1:L2 DNA 1:9, SPR of light chain tags; competing light chain m11
[44] = biological target: D3H44 light chain Q124E_Q160E_T180E, N-terminal HA or FLAG tag; assay: LCCA, L1:L2 DNA 1:9, SPR of light chain tags; competing light chain m10

- H2L2:H2L1 normalized median ratio [1]: 6%
- H2L2:H2L1 normalized median ratio [2]: 13%
- H2L2:H2L1 normalized median ratio [3]: 11%
- H2L2:H2L1 normalized median ratio [4]: 11%
- H2L2:H2L1 normalized median ratio [5]: 4%
- H2L2:H2L1 normalized median ratio [6]: 97%
- H2L2:H2L1 normalized median ratio [7]: 96%
- H2L2:H2L1 normalized median ratio [8]: 91%
- H2L2:H2L1 normalized median ratio [9]: 4%
- H2L2:H2L1 normalized median ratio [10]: 89%
- H2L2:H2L1 normalized median ratio [11]: 89%
- H2L2:H2L1 normalized median ratio [12]: 94%
- H2L2:H2L1 normalized median ratio [13]: 96%
- H2L2:H2L1 normalized median ratio [14]: 94%
- H2L2:H2L1 normalized median ratio [15]: 94%
- H2L2:H2L1 normalized median ratio [16]: 96%
- H2L2:H2L1 normalized median ratio [17]: 98%
- H2L2:H2L1 normalized median ratio [18]: 6%
- H2L2:H2L1 normalized median ratio [19]: 3%
- H2L2:H2L1 normalized median ratio [20]: 4%
- H2L2:H2L1 normalized median ratio [21]: 2%
- H2L2:H2L1 normalized median ratio [22]: 87%
- H2L2:H2L1 normalized median ratio [23]: 6%
- H2L2:H2L1 normalized median ratio [24]: 9%
- H2L2:H2L1 normalized median ratio [25]: 8%
- H2L2:H2L1 normalized median ratio [26]: 92%
Substance: D3H44 Fab heavy chain S186K with C-terminal ABD2-His6 tag

- H1L1:H1L2 normalized median ratio [2]: 75%
- H1L1:H1L2 normalized median scalar value ln(r1/f1) [2]: 1.1
- H1L1:H1L2 normalized median ratio [27]: 88%
- H1L1:H1L2 normalized median scalar value ln(r1/f1) [27]: 2.02
- H1L1:H1L2 normalized median ratio [4]: 83%
- H1L1:H1L2 normalized median scalar value ln(r1/f1) [4]: 1.59
- H1L1:H1L2 normalized median ratio [5]: 85%
- H1L1:H1L2 normalized median scalar value ln(r1/f1) [5]: 1.77
- H1L1:H1L2 normalized median ratio [6]: 27%
- H1L1:H1L2 normalized median ratio [28]: 92%
- H1L1:H1L2 normalized median scalar value ln(r1/f1) [28]: 2.46
- H1L1:H1L2 normalized median ratio [8]: 11%
- H1L1:H1L2 normalized median ratio [9]: 86%
- H1L1:H1L2 normalized median scalar value ln(r1/f1) [9]: 1.83
- H1L1:H1L2 normalized median ratio [29]: 12%
- H1L1:H1L2 normalized median ratio [11]: 17%
- H1L1:H1L2 normalized median ratio [13]: 15%
- H1L1:H1L2 normalized median ratio [30]: 8%
- H1L1:H1L2 normalized median ratio [31]: 8%
- H1L1:H1L2 normalized median ratio [14]: 15%
- H1L1:H1L2 normalized median ratio [16]: 14%
- H1L1:H1L2 normalized median ratio [32]: 8%
- H1L1:H1L2 normalized median ratio [17]: 30%
- H1L1:H1L2 normalized median ratio [33]: 12%
- H1L1:H1L2 normalized median ratio [34]: 92%
- H1L1:H1L2 normalized median scalar value ln(r1/f1) [34]: 2.45
- H1L1:H1L2 normalized median ratio [35]: 12%
- H1L1:H1L2 normalized median ratio [36]: 88%
- H1L1:H1L2 normalized median scalar value ln(r1/f1) [36]: 1.96
- H1L1:H1L2 normalized median ratio [18]: 85%
- H1L1:H1L2 normalized median scalar value ln(r1/f1) [18]: 1.75
- H1L1:H1L2 normalized median ratio [19]: 73%
- H1L1:H1L2 normalized median scalar value ln(r1/f1) [19]: 1
- H1L1:H1L2 normalized median ratio [21]: 70%
- H1L1:H1L2 normalized median scalar value ln(r1/f1) [21]: 0.84
- H1L1:H1L2 normalized median ratio [37]: 84%
- H1L1:H1L2 normalized median scalar value ln(r1/f1) [37]: 1.69
- H1L1:H1L2 normalized median ratio [38]: 92%
- H1L1:H1L2 normalized median scalar value ln(r1/f1) [38]: 2.41
- H1L1:H1L2 normalized median ratio [22]: 25%
- H1L1:H1L2 normalized median ratio [24]: 89%
- H1L1:H1L2 normalized median scalar value ln(r1/f1) [24]: 2.14
- H1L1:H1L2 normalized median ratio [39]: 88%
- H1L1:H1L2 normalized median scalar value ln(r1/f1) [39]: 2
- H1L1:H1L2 normalized median ratio [40]: 16%
Substance: D3H44 Fab heavy chain L143E_K145T_Q179E with C-terminal ABD2-His6 tag

- H1L1:H1L2 normalized median ratio [41]: 89 share of 100
- H1L1:H1L2 normalized median scalar value ln(r1/f1) [41]: 2.1
- H1L1:H1L2 normalized median ratio [42]: 11 share of 100
- H1L1:H1L2 normalized median ratio [43]: 89 share of 100
- H1L1:H1L2 normalized median scalar value ln(r1/f1) [43]: 2.09
- H1L1:H1L2 normalized median ratio [44]: 11 share of 100
Substance: D3H44 Fab heavy chain L143D_K145T_Q179E, C-terminal ABD2-His6 tag

Reference: patent publication US11306156
